Data reported in PMC6482854.

Assays:
[1] = target: P22 coat protein (bacteriophage P22) (UniProt P26747); test: SEC-MALS
[2] = target: P22-StAv particles (in vitro assembled) (bacteriophage P22 | not stated) (UniProt P26747); test: SEC-MALS

UniProt P26747, sequence (P26747 whole entry): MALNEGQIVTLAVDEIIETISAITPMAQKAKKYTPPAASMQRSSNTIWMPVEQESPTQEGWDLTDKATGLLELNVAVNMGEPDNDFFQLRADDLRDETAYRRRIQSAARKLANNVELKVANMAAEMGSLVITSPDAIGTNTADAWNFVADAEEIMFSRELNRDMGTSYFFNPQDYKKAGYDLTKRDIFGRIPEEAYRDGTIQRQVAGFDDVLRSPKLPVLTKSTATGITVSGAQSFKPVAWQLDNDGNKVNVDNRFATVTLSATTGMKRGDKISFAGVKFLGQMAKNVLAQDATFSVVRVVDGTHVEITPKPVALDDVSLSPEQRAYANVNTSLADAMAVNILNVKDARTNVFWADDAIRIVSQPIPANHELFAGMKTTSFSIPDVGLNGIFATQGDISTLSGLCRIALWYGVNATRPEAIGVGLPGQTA

| Substance | copies of StAv-SP per capsid (copies per capsid) [1] | stoichiometry N (copies per capsid) [2] |
| --- | --- | --- |
| 6xhis-StAv(15–159)-GAAG-ENLYFQS-GAAG-SP(142–303) (from UniProt P26748 142-303) | 328 | – |
| biotinylated Cys-6xhis-SP(142–303)-GGGGG-ENLYFQS-GGGGG-GFP (from UniProt P26748 142-303) | – | 36 |
